Reference: PMC9238363
Read-outs that look alike come from different tables or passages of the source.

Tests used:
Test in all cases: ELISA
Spike S2 [1] = biological target: T1, Spike S2 (SARS-CoV-2, UniProt P0DTC2 686-1213)
Nucleocapsid-His = Nucleocapsid-His (SARS-CoV-2, UniProt P0DTC9 1-419)
Spike S2 [2] = biological target: T1, Spike S2; remark: listed apart in the source
Spike S1-His = Spike S1-His (SARS-CoV-2, UniProt P0DTC2 14-685)

Row | Binder | binding result (Spike S2 [1]) | binding result (Nucleocapsid-His) | binding result (Spike S2 [2]) | binding result (Spike S1-His)
1 | RBD-Ap-1 (structured_DNA) DNA: CAGCACCGACCTTGTGCTTTGGGAGTGCTGGTCCAAGGGCGTTAATGGACA | no binding | – | – | –
2 | CGCAGCACCCAAGAACAAGGACTGCTTAGGATTGCGATAGGTTCGG (structured_DNA) [RBD-Ap-2] | no binding | no binding | – | –
3 | N-Ap (structured_DNA) DNA: GCTGGATGTCACCGGATTGTCGGACATCGGATTGTCTGAGTCATATGACACATCCAGC | – | – | no binding | no binding
